Measurements from US6642203B1, “Crustacean antimicrobial peptides” (Institut Francais de Recherche pour l'Exploitation de la Mer, priority 1997, dated 2003).

Experiments:
Type in all cases: cell-based
Escherichia coli D31 = test: Antibacterial assay, inhibition of growth in liquid phase (MIC); details: Escherichia coli D31, 24 h at 30° C.
Description: The bacteria are cultured with a starting optical density A600=0.001 in “Poor-Broth” nutrient medium (1% bactotryptone, 0.5% NaCl w/v).
The fractions were tested by inhibition of growth in liquid phase.
10 μl aliquots of each fraction to be tested are incubated in microtitre plates with 100 μl of a suspension of bacteria at the midlogarithmic phase.
The bacterial growth is measured by determining the optical density A600 after an incubation of 24 hours at 30° C.
An identical procedure was used to determine the minimum inhibitory concentration (MIC) of the molecules on these bacterial strains. The MIC values correspond to an interval a-b of peptide concentrations, where a represents the highest concentration at which bacterial growth is observed, and b is the lowest concentration which causes 100% inhibition of growth.

Neurospora crassa = test: Antifungal activity, inhibition of growth in liquid phase
Description: (§1) The antifungal activity was determined against Neurospora crassa and Fusarium oxysporum by a test of inhibition of growth in liquid phase. 80 μl of fungal spores (final concentration: 10^4 spores/ml) are suspended in ½ Potato Dextrose Broth (DIFCO) supplemented with tetracycline (10 μg/ml) and cefotaxime (100 μg/ml). This suspension was added to 10 μl of the fraction to be tested in microtitre plates. The final volume is brought to 100 μl by addition of 10 μl of water. Growth inhibition can be observed under a microscope after 24 hours of incubation at 25° C. in the dark, and measured by the variation in the optical density at 600 nm after 48 hours.

Fusarium oxysporum = test: as above
Description: as §1

Micrococcus luteus = test: Measurement of the bacteriostatic properties (CFU over time); details: for colonies formed (cfu): 18 μM (8 times MIC)
Description: A midlogarithmic phase culture of Micrococcus luteus in the “Poor Broth” medium defined above was incubated at 30° C. in the presence of the peptide or (as control) of water. The final concentration of the molecules tested is 8 times higher than the MIC. 20-μl alquots are collected at various time intervals and cultured on nutrient agar plate. The number of colonies formed (CFU) is determined after 24 hours of incubation at 37° C.

B1: Penaeidin 3: antimicrobial peptide of 62 amino acids, about 6.6 kDa, from Penaeus vannamei haemolymph (protein, listed as Penaeus vannamei)
chain: EVYKGGYTRPIPRPPPFVRPLPGGPIGPYNGCPVSCRGISFSQARSCCSRLGRCCHVGKGYS
Question: What does the source list for B1?
Answer: MIC (Escherichia coli D31): > 5 µM; MIC (Neurospora crassa): > 5 µM; MIC (Fusarium oxysporum): > 5 µM; colonies formed (cfu) (Micrococcus luteus; incubation time 1 min): 4.30 10^4 cfu/ml; colonies formed (cfu) (Micrococcus luteus; incubation time 30 min): 4.45 10^4 cfu/ml; colonies formed (cfu) (Micrococcus luteus; incubation time 2 h): 3.15 10^4 cfu/ml; colonies formed (cfu) (Micrococcus luteus; incubation time 4 h): 4.60 10^4 cfu/ml; colonies formed (cfu) (Micrococcus luteus; incubation time 7 h): 4.50 10^4 cfu/ml; colonies formed (cfu) (Micrococcus luteus; incubation time 24 h): 5.60 10^4 cfu/ml; bacterial growth (Micrococcus luteus; 18 μM, after an incubation of 24 hours): no bacterial growth is observed; kind of antibacterial effect (Micrococcus luteus; 18 μM, number of colonies constant over sample collections): bacteriostatic effect
